According to PMC5068739 (PLoS ONE, 2016):

Tests used:
[1] = target: Bradi2g41950 (B. distachyon)
[2] = target: T1, AtPYL6 (with TaABI1) (Arabidopsis thaliana, UniProt Q8S8E3); assay: receptor-mediated PP2C inhibition, 4-methylumbelliferyl phosphate fluorescence; assay type: biochemical; conditions: ligand 0.1 uM unless otherwise noted, Mn2+, pH 7.9, 30 °C
T1 construct: gene PYL6; recombinant from E. coli, Ni-NTA enriched; the partner PP2C is from wheat; with Protein phosphatase 2C ABI1 (Triticum aestivum)
T1 sequence (Q8S8E3 1-215): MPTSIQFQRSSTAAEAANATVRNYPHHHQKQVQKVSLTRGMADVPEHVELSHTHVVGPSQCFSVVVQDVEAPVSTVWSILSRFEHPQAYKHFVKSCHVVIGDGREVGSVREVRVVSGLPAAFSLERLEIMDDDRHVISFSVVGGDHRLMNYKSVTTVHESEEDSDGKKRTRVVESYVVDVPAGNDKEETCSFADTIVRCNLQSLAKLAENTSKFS
T1 sequence (A5A6P8 1-479 partner): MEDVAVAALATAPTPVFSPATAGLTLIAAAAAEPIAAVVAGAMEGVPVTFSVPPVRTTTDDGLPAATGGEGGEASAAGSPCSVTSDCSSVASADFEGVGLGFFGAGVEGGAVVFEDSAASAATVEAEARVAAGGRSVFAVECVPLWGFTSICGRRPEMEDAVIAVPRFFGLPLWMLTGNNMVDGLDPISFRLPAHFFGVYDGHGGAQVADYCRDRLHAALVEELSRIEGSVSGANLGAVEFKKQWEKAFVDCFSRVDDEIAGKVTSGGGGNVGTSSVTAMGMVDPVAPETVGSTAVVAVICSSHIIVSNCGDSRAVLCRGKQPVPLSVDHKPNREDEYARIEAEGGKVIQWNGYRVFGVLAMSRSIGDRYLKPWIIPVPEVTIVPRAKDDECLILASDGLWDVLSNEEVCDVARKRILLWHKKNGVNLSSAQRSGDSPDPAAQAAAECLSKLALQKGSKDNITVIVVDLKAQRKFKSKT

[3] = target: T2, Bradi1g37810 (with Bradi2g41950) (Brachypodium distachyon, UniProt I1GXY5); assay: as above; assay type: biochemical; conditions: ligand 0.1 uM unless otherwise noted, Mn2+, pH 7.9, 30 °C, n = 1 screen
T2 construct: gene LOC100840898; recombinant from E. coli, Ni-NTA enriched; receptor 196 residues; with Protein phosphatase 2C
T2 sequence (I1GXY5 1-196): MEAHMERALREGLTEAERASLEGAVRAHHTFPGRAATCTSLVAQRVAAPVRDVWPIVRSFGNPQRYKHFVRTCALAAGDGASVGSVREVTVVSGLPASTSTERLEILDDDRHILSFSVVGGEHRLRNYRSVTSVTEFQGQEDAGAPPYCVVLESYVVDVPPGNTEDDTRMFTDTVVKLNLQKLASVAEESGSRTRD

[4] = target: TaABI1 (wheat)
[5] = target: AtABI1 (A. thaliana) (UniProt P49597)
[6] = target: TaABI1 (wheat); remark: listed apart in the source

AtABI1 (A. thaliana), sequence (P49597 whole entry): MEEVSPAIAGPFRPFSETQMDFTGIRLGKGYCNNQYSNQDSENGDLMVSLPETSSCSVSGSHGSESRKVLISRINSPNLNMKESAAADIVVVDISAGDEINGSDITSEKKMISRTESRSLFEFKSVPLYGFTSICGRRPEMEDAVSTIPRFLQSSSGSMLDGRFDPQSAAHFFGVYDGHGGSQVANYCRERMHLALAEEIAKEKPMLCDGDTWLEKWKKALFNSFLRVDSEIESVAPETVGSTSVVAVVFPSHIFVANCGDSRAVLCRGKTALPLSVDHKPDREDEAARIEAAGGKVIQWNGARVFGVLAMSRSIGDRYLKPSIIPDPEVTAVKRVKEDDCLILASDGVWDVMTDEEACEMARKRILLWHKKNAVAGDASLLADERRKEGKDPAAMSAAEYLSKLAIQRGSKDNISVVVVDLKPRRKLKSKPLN

For Bradi3g09580 (receptor), the Bradi2g41950 phosphatase activity with receptor and PBI352 (Figure C in S2 File; n = 1) (% inhibition of PP2C) [1] was 90.

`CO[C@]1(/C=C/C(C)=C\C(=O)O)C(C)=CC(=O)CC1(C)C` [PBI352] was tested, and the “% inhibition of PP2C” value [2] was “the three A. thaliana receptors against the Ta_ABI1 PP2C were plotted” and the “% inhibition of PP2C” value [3] was “subfamily III receptor Bd1g37810 is similar to that of the subfamily II, Ta_PYL2DS_FL”.

With Bradi2g32250 (receptor) the Bradi2g41950 phosphatase activity with receptor and PBI352 (Figure C in S2 File; n = 1) (% inhibition of PP2C) [1] was 90.

Ta_PYL2DS_FL (receptor) was tested, and the TaABI1 phosphatase activity (4-methylumbelliferyl phosphate) with the receptor, on addition of ABA (Figure B in S2 File) (% reduction of phosphatase activity) [4] was 90, the PP2C phosphatase activity, receptor to PP2C 10:1, with 0.1 uM PBI352 (Fig 2B) (% decrease in PP2C activity) [5] was 30 and the PP2C phosphatase activity, receptor to PP2C 10:1, with 0.1 uM PBI354 (Fig 2C) (% decrease in PP2C activity) [5] was 0. It also gave a PP2C phosphatase activity, receptor to PP2C 10:1, with 0.1 uM PBI352 (Fig 2B) (% decrease in PP2C activity) [6] of 30 and a PP2C phosphatase activity, receptor to PP2C 10:1, with 0.1 uM PBI354 (Fig 2C) (% decrease in PP2C activity) [6] of 0.
